Results as given in the supplement of paper PMC10126150.
± gives the standard deviation of the averaged measurements.

Test system: ATP
Experiment: switch fluorescence ratio, 500 uM ATP over buffer (Cy3 cluster intensity, sum of 5 cycles each) (fold (ratio)); higher = stronger signal-on switching upon ATP binding; sequences stand for … in TCGTCGGCAGCGTCAGATGTGTATAAGAGACAGTTTTTTTTTTTTTTTTTTTTTTTTT…TC
Conditions: aptamer strand: ATP DNA aptamer (quencher-CACCTGGGGGAGTATTGCGGAGGAAGG + anchor), 100 nM annealed; ATP concentration: 500 uM
In short: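 Clusters with intensities outside 100-1000 RFU were excluded. The remaining Cy3-labelled switching-strand clusters on a modified Illumina MiSeq flow-cell had been annealed to 100 nM quencher-labelled ATP aptamer and imaged in selection buffer, then after 15 min with 500 uM ATP at 22 °C, for five cycles separated by NaOH stripping and re-annealing. The fluorescence ratio, averaged per switch-domain sequence, is each cluster's summed target-cycle Cy3 intensity over its summed buffer-cycle Cy3 intensity.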
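Further: ATP exposure 15 min at 22 °C before imaging.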

GGGGAGTTTA gave a switch fluorescence ratio of 1.027 ± 0.0017.
GGGGAGTTTG gave a switch fluorescence ratio of 1.01 ± 0.064.
GGGGATAACA was tested, and the switch fluorescence ratio was 1.028 ± 0.00063.
GGGGATAGAG gave a switch fluorescence ratio of 1.01 ± 0.015.
Sequence GGGGATAGTG has a switch fluorescence ratio of 0.997 ± 0.011.
With GGGGATATGC the switch fluorescence ratio was 0.995 ± 0.048.
In the case of GGGGATGAAA, the switch fluorescence ratio is reported as 0.989 ± 0.011.
For GGGGATGCAT, the switch fluorescence ratio was 1.01 ± 0.059.
GGGGATGGGA gave a switch fluorescence ratio of 1.01 ± 0.033.
For GGGGATTAGT, the switch fluorescence ratio was 0.997 ± 0.043.
GGGGATTGAA was tested, and the switch fluorescence ratio was 0.994 ± 0.018.
GGGGCAAGAT was tested, and the switch fluorescence ratio was 1.52 ± 0.78.
GGGGCACATT was tested, and the switch fluorescence ratio was 0.9885 ± 0.0046.
GGGGCAGACT was tested, and the switch fluorescence ratio was 1.03 ± 0.018.
In the case of GGGGCAGGAT, the switch fluorescence ratio is reported as 1.22 ± 0.34.
In the case of GGGGCAGGGT, the switch fluorescence ratio is reported as 1.03 ± 0.064.
GGGGCAGTAG was tested, and the switch fluorescence ratio was 1.04 ± 0.046.
In the case of GGGGCATAGG, the switch fluorescence ratio is reported as 0.9777 ± 0.0015.
GGGGCCCATG was tested, and the switch fluorescence ratio was 0.992 ± 0.021.
GGGGCCGGCG showed a switch fluorescence ratio of 1.08 ± 0.11.
GGGGCCGTTT gave a switch fluorescence ratio of 0.973 ± 0.03.
GGGGCGACTA gave a switch fluorescence ratio of 1.03 ± 0.052.
For GGGGCGAGAG, the switch fluorescence ratio was 0.9939 ± 0.0046.
Sequence GGGGCGAGTG has a switch fluorescence ratio of 1 ± 0.035.
Sequence GGGGCGCAGG has a switch fluorescence ratio of 0.993 ± 0.011.
For GGGGCGCCTG, the switch fluorescence ratio was 1.01 ± 0.048.
GGGGCGCGAC was tested, and the switch fluorescence ratio was 0.993 ± 0.085.
GGGGCGGATT gave a switch fluorescence ratio of 0.984 ± 0.014.
In the case of GGGGCGGCCT, the switch fluorescence ratio is reported as 0.979 ± 0.04.
Sequence GGGGCGGGCC has a switch fluorescence ratio of 0.971 ± 0.021.
GGGGCGGTCC gave a switch fluorescence ratio of 1.04 ± 0.043.
In the case of GGGGCGTACG, the switch fluorescence ratio is reported as 1.05 ± 0.2.
GGGGCGTCGT showed a switch fluorescence ratio of 1.02 ± 0.029.
GGGGCGTCTG was tested, and the switch fluorescence ratio was 1.04 ± 0.06.
GGGGCGTTAG was tested, and the switch fluorescence ratio was 1.002 ± 0.0065.
Sequence GGGGCTAGCG has a switch fluorescence ratio of 0.99 ± 0.02.
GGGGCTCAGA gave a switch fluorescence ratio of 0.993 ± 0.011.
For GGGGCTCTGT, the switch fluorescence ratio was 1 ± 0.012.
Sequence GGGGCTTAGT has a switch fluorescence ratio of 1.03 ± 0.017.
Sequence GGGGCTTATC has a switch fluorescence ratio of 1.03 ± 0.043.
In the case of GGGGGAACCG, the switch fluorescence ratio is reported as 0.994 ± 0.08.
GGGGGAACGC was tested, and the switch fluorescence ratio was 0.998 ± 0.054.
For GGGGGAAGAG, the switch fluorescence ratio was 1.01 ± 0.021.
In the case of GGGGGAAGGA, the switch fluorescence ratio is reported as 0.995 ± 0.036.
For GGGGGAATA, the switch fluorescence ratio was 0.993 ± 0.051.
Sequence GGGGGAATGC has a switch fluorescence ratio of 1.07 ± 0.11.
GGGGGACTGG was tested, and the switch fluorescence ratio was 0.981 ± 0.019.
For GGGGGACTTA, the switch fluorescence ratio was 0.998 ± 0.043.
In the case of GGGGGAGCCC, the switch fluorescence ratio is reported as 0.9896 ± 0.0091.
GGGGGAGGGA showed a switch fluorescence ratio of 0.997 ± 0.04.
GGGGGAGTAA gave a switch fluorescence ratio of 1.05 ± 0.15.
GGGGGAGTCA was tested, and the switch fluorescence ratio was 1 ± 0.056.
With GGGGGAGTCG the switch fluorescence ratio was 1.02 ± 0.048.
For GGGGGATATC, the switch fluorescence ratio was 0.994 ± 0.06.
GGGGGATATG gave a switch fluorescence ratio of 0.984 ± 0.027.
In the case of GGGGGATGAT, the switch fluorescence ratio is reported as 0.9889 ± 0.007.
GGGGGATGGG gave a switch fluorescence ratio of 0.998 ± 0.032.
GGGGGCAATC gave a switch fluorescence ratio of 2.84 ± 0.54.
GGGGGCACGG showed a switch fluorescence ratio of 1.01 ± 0.012.
For GGGGGCACTT, the switch fluorescence ratio was 1.008 ± 0.0045.
GGGGGCCCCG showed a switch fluorescence ratio of 1 ± 0.013.
GGGGGCCGGA gave a switch fluorescence ratio of 1.01 ± 0.048.
With GGGGGCCGGC the switch fluorescence ratio was 1.028 ± 0.0031.
Sequence GGGGGCCTAA has a switch fluorescence ratio of 1 ± 0.028.
In the case of GGGGGCCTGG, the switch fluorescence ratio is reported as 0.979 ± 0.019.
Work on GGGGGCGCCG yielded a switch fluorescence ratio of 1.01 ± 0.097.
Sequence GGGGGCGCGT has a switch fluorescence ratio of 1.02 ± 0.038.
In the case of GGGGGCGGGA, the switch fluorescence ratio is reported as 1.02 ± 0.059.
GGGGGCGGTA showed a switch fluorescence ratio of 1.02 ± 0.059.
Work on GGGGGCGTAC yielded a switch fluorescence ratio of 1.06 ± 0.083.
In the case of GGGGGCGTAT, the switch fluorescence ratio is reported as 1.051 ± 0.0072.
GGGGGCGTTT showed a switch fluorescence ratio of 1.01 ± 0.045.
Sequence GGGGGCTTCG has a switch fluorescence ratio of 0.992 ± 0.048.
GGGGGCTTTT showed a switch fluorescence ratio of 1.01 ± 0.034.
Work on GGGGGGAACT yielded a switch fluorescence ratio of 0.987 ± 0.022.
For GGGGGGAATG, the switch fluorescence ratio was 1 ± 0.03.
For GGGGGGAGCA, the switch fluorescence ratio was 0.992 ± 0.018.
GGGGGGAGGT gave a switch fluorescence ratio of 1.02 ± 0.065.
Sequence GGGGGGATCC has a switch fluorescence ratio of 0.996 ± 0.044.
GGGGGGATTA was tested, and the switch fluorescence ratio was 0.992 ± 0.035.
GGGGGGCAGT showed a switch fluorescence ratio of 1 ± 0.023.
Sequence GGGGGGCATG has a switch fluorescence ratio of 0.992 ± 0.035.
GGGGGGCCAG gave a switch fluorescence ratio of 1.01 ± 0.04.
Work on GGGGGGCCCT yielded a switch fluorescence ratio of 0.996 ± 0.028.
Work on GGGGGGCCTG yielded a switch fluorescence ratio of 0.982 ± 0.038.
GGGGGGCTGC showed a switch fluorescence ratio of 0.978 ± 0.036.
GGGGGGGAAG was tested, and the switch fluorescence ratio was 1.01 ± 0.087.
Work on GGGGGGGACA yielded a switch fluorescence ratio of 0.984 ± 0.031.
GGGGGGGACC showed a switch fluorescence ratio of 0.999 ± 0.017.
GGGGGGGAGG showed a switch fluorescence ratio of 0.993 ± 0.029.
With GGGGGGGAGT the switch fluorescence ratio was 0.995 ± 0.02.
With GGGGGGGCAG the switch fluorescence ratio was 0.986 ± 0.017.
GGGGGGGCTA was tested, and the switch fluorescence ratio was 0.9868 ± 0.0035.
Work on GGGGGGGCTG yielded a switch fluorescence ratio of 1.06 ± 0.4.
GGGGGGGGA gave a switch fluorescence ratio of 1.05 ± 0.026.
With GGGGGGGGTC the switch fluorescence ratio was 0.989 ± 0.034.
With GGGGGGTACG the switch fluorescence ratio was 1 ± 0.05.
GGGGGGTCAA gave a switch fluorescence ratio of 0.967 ± 0.033.
For GGGGGGTGCG, the switch fluorescence ratio was 0.999 ± 0.019.
GGGGGGTTGC showed a switch fluorescence ratio of 0.967 ± 0.035.
GGGGGTAGCT gave a switch fluorescence ratio of 1 ± 0.017.
For GGGGGTATAG, the switch fluorescence ratio was 1.02 ± 0.022.
For GGGGGTATTT, the switch fluorescence ratio was 1 ± 0.018.
In the case of GGGGGTCACG, the switch fluorescence ratio is reported as 0.978 ± 0.028.
In the case of GGGGGTCCAT, the switch fluorescence ratio is reported as 0.954 ± 0.031.
GGGGGTCCGA was tested, and the switch fluorescence ratio was 0.9855 ± 0.0042.
In the case of GGGGGTCCTA, the switch fluorescence ratio is reported as 0.977 ± 0.0099.
Work on GGGGGTCTTT yielded a switch fluorescence ratio of 0.99 ± 0.023.
Sequence GGGGGTGAAC has a switch fluorescence ratio of 0.98 ± 0.029.
For GGGGGTGACA, the switch fluorescence ratio was 0.9931 ± 0.0073.
GGGGGTGCAT gave a switch fluorescence ratio of 0.9638 ± 0.0088.
With GGGGGTGGAT the switch fluorescence ratio was 1 ± 0.025.
GGGGGTGGCA gave a switch fluorescence ratio of 0.998 ± 0.042.
For GGGGGTGGCG, the switch fluorescence ratio was 0.973 ± 0.021.
In the case of GGGGGTGGGG, the switch fluorescence ratio is reported as 1.01 ± 0.037.
GGGGGTGGTG gave a switch fluorescence ratio of 0.988 ± 0.038.
GGGGGTGTAA showed a switch fluorescence ratio of 0.986 ± 0.018.
Work on GGGGGTTAAG yielded a switch fluorescence ratio of 0.988 ± 0.029.
Work on GGGGGTTAAT yielded a switch fluorescence ratio of 1.013 ± 0.0037.
GGGGGTTGCG showed a switch fluorescence ratio of 0.979 ± 0.015.
GGGGTAAAAC gave a switch fluorescence ratio of 1.02 ± 0.023.
GGGGTAAGAA was tested, and the switch fluorescence ratio was 0.981 ± 0.034.
Work on GGGGTAATTT yielded a switch fluorescence ratio of 1.02 ± 0.035.
With GGGGTACAAT the switch fluorescence ratio was 1.07 ± 0.041.
GGGGTACCAC was tested, and the switch fluorescence ratio was 1.31 ± 0.4.
In the case of GGGGTACGCG, the switch fluorescence ratio is reported as 0.984 ± 0.024.
GGGGTAGAAG was tested, and the switch fluorescence ratio was 1.004 ± 0.0016.
In the case of GGGGTAGACT, the switch fluorescence ratio is reported as 0.995 ± 0.018.
Sequence GGGGTAGATG has a switch fluorescence ratio of 0.9985 ± 0.0033.
GGGGTAGCGA showed a switch fluorescence ratio of 0.992 ± 0.051.
For GGGGTAGGAC, the switch fluorescence ratio was 1.01 ± 0.017.
With GGGGTAGGGA the switch fluorescence ratio was 1 ± 0.019.
In the case of GGGGTAGGGC, the switch fluorescence ratio is reported as 1.04 ± 0.057.
Work on GGGGTAGGTT yielded a switch fluorescence ratio of 1.02 ± 0.053.
GGGGTATCGA was tested, and the switch fluorescence ratio was 0.998 ± 0.039.
GGGGTATGCT showed a switch fluorescence ratio of 1.03 ± 0.032.
GGGGTATGTC was tested, and the switch fluorescence ratio was 1.02 ± 0.053.
In the case of GGGGTATGTT, the switch fluorescence ratio is reported as 0.99 ± 0.036.
GGGGTATTGA gave a switch fluorescence ratio of 1.03 ± 0.037.
Sequence GGGGTATTGG has a switch fluorescence ratio of 0.993 ± 0.035.
GGGGTATTGT gave a switch fluorescence ratio of 1.007 ± 0.0034.
With GGGGTCAGGT the switch fluorescence ratio was 1 ± 0.024.
In the case of GGGGTCCTTA, the switch fluorescence ratio is reported as 1 ± 0.018.
For GGGGTCGATG, the switch fluorescence ratio was 0.9847 ± 0.0042.
With GGGGTCGGTG the switch fluorescence ratio was 0.969 ± 0.03.
In the case of GGGGTGACGT, the switch fluorescence ratio is reported as 1.02 ± 0.031.
GGGGTGCTTT was tested, and the switch fluorescence ratio was 0.987 ± 0.017.
With GGGGTGGACG the switch fluorescence ratio was 1.07 ± 0.021.
In the case of GGGGTGGATA, the switch fluorescence ratio is reported as 0.996 ± 0.027.
GGGGTGGGTG was tested, and the switch fluorescence ratio was 1.03 ± 0.039.
GGGGTGTACC was tested, and the switch fluorescence ratio was 0.985 ± 0.033.
For GGGGTGTAGA, the switch fluorescence ratio was 1.02 ± 0.03.
GGGGTGTTAG gave a switch fluorescence ratio of 1.02 ± 0.012.
